From the Immune Epitope Database (IEDB) come the findings set out here.

For experiment [1], the target named is HLA-A*01:01. The experiment is described as follows: IEDB peptide-MHC binding, purified MHC/direct/fluorescence; filed as Kd, often an IC50 or EC50 that approximates it; ≥ and ≤ were set here for values at or beyond the usual limits of such assays.
Experiment [2] deals with HLA-A*02:01. The experiment is described as above.
In experiment [3] the target is HLA-A*03:01. Described as above.
In experiment [4] the target is HLA-A*11:01. Described as above.
The target of a further experiment is HLA-A*29:02. The description is as above.
Experiment [5] has as its target HLA-A*31:01. The description is as above.
The target of the next experiment is HLA-A*69:01. The experiment is described as above.
Another experiment concerns the target HLA-B*08:01. The description is as above.
In experiment [6] the target is HLA-B*18:01. The experiment is described as above.
For another experiment, the target named is HLA-B*27:05. The description is as above.
Experiment [7] addresses HLA-B*40:01. The description is as above.
In a further experiment the target is HLA-B*44:02. The description is as above.
Another experiment deals with HLA-B*46:01. The description is as above.
For a further experiment, the target named is HLA-B*48:01. The experiment is described as above.
A further experiment addresses HLA-B*57:01. The experiment is described as above.
The next experiment addresses HLA-B*58:01. The experiment is described as above.
The target in a further experiment is HLA-B*15:01. The description is as above. The note with it: source organism: Mycobacterium tuberculosis variant bovis.
Experiment [8] has as its target HLA-B*51:01. The experiment is described as follows: IEDB peptide-MHC binding, purified MHC/competitive/fluorescence; filed as Kd, often an IC50 or EC50 that approximates it; ≥ and ≤ were set here for values at or beyond the usual limits of such assays. The note with it: source organism: Mycobacterium tuberculosis variant bovis.
In experiment [9] the target is HLA-B*07:02. The experiment is described as follows: IEDB peptide-MHC binding, purified MHC/direct/fluorescence; filed as Kd, often an IC50 or EC50 that approximates it; ≥ and ≤ were set here for values at or beyond the usual limits of such assays. To be noted: source organism: Mycobacterium tuberculosis.
Experiment [10] concerns the target HLA-A*02:01. The experiment is described as follows: IEDB peptide-MHC binding, purified MHC/competitive/fluorescence; filed as Kd, often an IC50 or EC50 that approximates it; ≥ and ≤ were set here for values at or beyond the usual limits of such assays. To be noted: source organism: Mycobacterium tuberculosis variant bovis BCG str. Pasteur 1173P2.
The target of experiment [11] is HLA-A*01:01. The experiment is described as follows: IEDB peptide-MHC binding, purified MHC/competitive/radioactivity; filed as Kd, often an IC50 or EC50 that approximates it; ≥ and ≤ were set here for values at or beyond the usual limits of such assays. To be noted: source organism: Hepatitis C virus (isolate 1).
For experiment [12], the target named is HLA-A*02:01. Described as above. The note with it: source organism: Hepatitis C virus (isolate 1).
For a further experiment, the target named is HLA-A*02:02. The experiment is described as above. To be noted: source organism: Hepatitis C virus (isolate 1).
Another experiment has as its target HLA-A*02:03. The experiment is described as above. To be noted: source organism: Hepatitis C virus (isolate 1).
In a further experiment the target is HLA-A*02:06. The description is as above. The note with it: source organism: Hepatitis C virus (isolate 1).
Experiment [13] concerns the target HLA-A*03:01. The description is as above. The note with it: source organism: Hepatitis C virus (isolate 1).
Experiment [14] concerns the target HLA-A*11:01. The description is as above. To be noted: source organism: Hepatitis C virus (isolate 1).
The target in experiment [15] is HLA-A*31:01. The description is as above. The note with it: source organism: Hepatitis C virus (isolate 1).
The target in another experiment is HLA-A*33:01. Described as above. To be noted: source organism: Hepatitis C virus (isolate 1).
A further experiment addresses HLA-A*68:01. The experiment is described as above. To be noted: source organism: Hepatitis C virus (isolate 1).
Another experiment has as its target HLA-A*68:02. The description is as above. To be noted: source organism: Hepatitis C virus (isolate 1).
Experiment [16] addresses HLA-B*07:02. The experiment is described as above. The note with it: source organism: Hepatitis C virus (isolate 1).
For experiment [17], the target named is HLA-B*18:01. The experiment is described as above. To be noted: source organism: Hepatitis C virus (isolate 1).
For the next experiment, the target named is HLA-B*35:01. The experiment is described as above. The note with it: source organism: Hepatitis C virus (isolate 1).
Experiment [18] concerns the target HLA-B*40:01. The experiment is described as above. To be noted: source organism: Hepatitis C virus (isolate 1).
A further experiment concerns the target HLA-B*40:02. Described as above. To be noted: source organism: Hepatitis C virus (isolate 1).
The target of the next experiment is HLA-B*44:03. Described as above. The note with it: source organism: Hepatitis C virus (isolate 1).
Experiment [19] addresses HLA-B*51:01. The experiment is described as above. The note with it: source organism: Hepatitis C virus (isolate 1).
For another experiment, the target named is HLA-B*53:01. Described as above. To be noted: source organism: Hepatitis C virus (isolate 1).
The next experiment concerns the target HLA-B*54:01. The description is as above. To be noted: source organism: Hepatitis C virus (isolate 1).
Setting [20] is: source organism: Mycobacterium tuberculosis C.
Setting [21] is: source organism: Mycobacterium tuberculosis variant bovis.
Setting [22] is: source organism: Mycobacterium tuberculosis.
Where [23] appears, read: source organism: Mammarenavirus juninense.

For orientation: Kd means a measure of binding affinity in units of concentration. With IIRTENRPL, the dissociation constant (Kd) with HLA-A*01:01 [1] (setting [20]), in the experiment with HLA-A*02:01 [2] (setting [20]), with HLA-A*03:01 [3] (setting [20]), with HLA-A*11:01 [4] (setting [20]), with HLA-A*29:02 (setting [20]) and with HLA-A*31:01 [5] (setting [20]) was no less than 20 µM in each case. Also, the Kd in the experiment with HLA-A*69:01 (setting [20]) is no less than 20 µM; with HLA-B*08:01 (setting [20]), 3.06 µM; with HLA-B*18:01 [6] (setting [20]), no less than 20 µM; in the experiment with HLA-B*27:05 (setting [20]), no less than 20 µM; in the experiment with HLA-B*40:01 [7] (setting [20]), no less than 20 µM; in the experiment with HLA-B*44:02 (setting [20]), no less than 20 µM. The Kd with HLA-B*46:01 (setting [20]), with HLA-B*48:01 (setting [20]), in the experiment with HLA-B*57:01 (setting [20]) and with HLA-B*58:01 (setting [20]) was no less than 20 µM each time.
As for TPREAPYEL, the Kd in the experiment with HLA-A*01:01 [1] (setting [21]), with HLA-A*02:01 [2] (setting [21]), in the experiment with HLA-A*03:01 [3] (setting [21]), with HLA-A*11:01 [4] (setting [21]), in the experiment with HLA-A*29:02 (setting [21]) and with HLA-A*31:01 [5] (setting [21]) was no less than 20 µM each time. For the same sequence, the Kd in the experiment with HLA-A*69:01 (setting [21]) is no less than 20 µM; with HLA-B*08:01 (setting [21]) it was 7 µM; with HLA-B*15:01, no less than 20 µM; with HLA-B*18:01 [6] (setting [21]), no less than 20 µM; with HLA-B*27:05 (setting [21]), no less than 20 µM; with HLA-B*40:01 [7] (setting [21]), no less than 20 µM. Besides, the dissociation constant (Kd) with HLA-B*44:02 (setting [21]), with HLA-B*46:01 (setting [21]), in the experiment with HLA-B*48:01 (setting [21]), with HLA-B*57:01 (setting [21]), in the experiment with HLA-B*58:01 (setting [21]) and with HLA-B*51:01 [8] was no less than 20 µM each time.
Take IQAVFGFSL: the Kd in the experiment with HLA-A*01:01 [1] (setting [22]), with HLA-A*03:01 [3] (setting [22]), with HLA-A*11:01 [4] (setting [22]), with HLA-A*29:02 (setting [22]), in the experiment with HLA-A*31:01 [5] (setting [22]) and in the experiment with HLA-A*69:01 (setting [22]) was no less than 20 µM throughout. Besides, the equilibrium dissociation constant (Kd) with HLA-B*07:02 [9], in the experiment with HLA-B*27:05 (setting [22]), in the experiment with HLA-B*44:02 (setting [22]), with HLA-B*46:01 (setting [22]), with HLA-B*57:01 (setting [22]) and in the experiment with HLA-B*58:01 (setting [22]) was no less than 20 µM each time. For the same sequence, the Kd in the experiment with HLA-A*02:01 [10] was determined as 1.35 µM.
As for HSKKKCDEL, the Kd is 3.52 µM with HLA-A*01:01 [11]; no less than 69.4 µM with HLA-A*02:01 [12]; no less than 70 µM with HLA-A*02:02; no less than 78.1 µM with HLA-A*02:03; no less than 77.1 µM with HLA-A*02:06; no less than 78 µM in the experiment with HLA-A*03:01 [13]. Moreover, the Kd is no less than 37.3 µM with HLA-A*11:01 [14]; no less than 65 µM with HLA-A*31:01 [15]; no less than 77.7 µM with HLA-A*33:01; no less than 77.7 µM in the experiment with HLA-A*68:01; no less than 69.8 µM with HLA-A*68:02; no less than 77.5 µM with HLA-B*07:02 [16]. The Kd in the experiment with HLA-B*18:01 [17] was no less than 77.5 µM; in the experiment with HLA-B*35:01 it was no less than 77.4 µM; with HLA-B*40:01 [18], no less than 76.2 µM; with HLA-B*40:02 it was no less than 77.3 µM; with HLA-B*44:03, no less than 78.2 µM; in the experiment with HLA-B*51:01 [19] it was no less than 77.5 µM. Also, the values for the Kd with HLA-B*53:01 and with HLA-B*54:01 were no less than 78.2 µM and no less than 78.1 µM, respectively.
On to ATDPVEMAL, for which the Kd is 0.308 µM with HLA-A*01:01 [1] (setting [23]) and no less than 20 µM with HLA-A*29:02 (setting [23]).
